{"source": "patent US20090232762A1", "about": "“COMPOSITIONS FOR DELIVERY OF THERAPEUTIC AGENTS” (priority 2008, published 2009)", "type_in_all_cases": "biochemical, S. cerevisiae", "key": {"[1]": {"substrate": "Nc1nc(=O)[nH]cc1F", "test": "Enzyme activity of yCD-His (substrate turnover)", "details": "other: enzyme yCD-His, 10 uL of 4.52 ug/mL stock; average ±SE; 23.0 °C", "method": "(§1) The S. cerevisiae yeast cytosine deaminase (yCD) enzyme was cloned and expressed. The resulting 474 bp gene was subcloned into pET-15b to facilitate purification of the protein via a fused histidine tag and transformed into competent BL21(DE3) cells for protein expression. An estimate of about 25-30 mg of pure yCD-His was collected from a 1-liter culture. Thrombin cleavage of the histidine tag on yCD-His was achieved by incubating the protein for 2 hours at 23° C. in thrombin cleavage buffer. Enzyme activity characteristics for yCD and yCD-His was investigated using both the prodrug 5FC and the enzyme's natural substrate, the DNA base cytosine. Five-FC turnover rates remained within 10^5 M^−1·s^−1 (Table 1) for both proteins (see E. Kievit et al. Cancer Res. 2000, 60:6649-6655). The diffusion controlled limit for extremely efficient enzymes and their substrates in solution is in the range 10^8-10^9 M^−1·s^−1, therefore it was concluded that yCD was a very efficient pretargeting enzyme for catalyzing 5FC to 5FU conversion, especially applicable to GDEPT."}, "[2]": {"substrate": "Nc1cc[nH]c(=O)n1", "test": "Enzyme activity of yCD-His (substrate turnover)", "details": "other: enzyme yCD-His, 10 uL of 4.52 ug/mL stock; average ±SE; 23.0 °C", "method": "as §1"}, "[3]": {"substrate": "Nc1nc(=O)[nH]cc1F", "test": "Enzyme activity of yCD (His tag cleaved)", "details": "other: enzyme yCD, 10 uL of 4.23 ug/mL stock; average ±SE; 23.0 °C", "method": "as §1"}, "[4]": {"substrate": "Nc1cc[nH]c(=O)n1", "test": "Enzyme activity of yCD (His tag cleaved)", "details": "other: enzyme yCD, 10 uL of 4.23 ug/mL stock; average ±SE; 23.0 °C", "method": "as §1"}}, "data": [{"protein": "yCD-His (Saccharomyces cerevisiae S288C) (protein, The resulting 474 bp gene was subcloned into pET-15b; made in house; host or cells: E. coli BL21(DE3)) MVTGGMASKWDQKGMDIAYEEAALGYKEGGVPIGGCLINNKDGSVLGRGHNMRFQKGSATLHGEISTLENCGRLEGKVYKDTTLYTTLSPCDMCTGAIIMYGIPRCVVGENVNFKSKGEKYLQTRGHEVVVVDDERCKKIMKQFIDERPQDWFEDIGE", "values": [{"measurement": "Km", "setting": "[1]", "result": "1.0 ± 0.24", "unit": "mM"}, {"measurement": "Km", "setting": "[2]", "result": "4.04 ± 1.12", "unit": "mM"}]}, {"protein": "yCD (Saccharomyces cerevisiae S288C) (protein, The resulting 474 bp gene was subcloned into pET-15b; histidine tag (pET-15b) (N, cleaved yes); made in house; host or cells: E. coli BL21(DE3)) MVTGGMASKWDQKGMDIAYEEAALGYKEGGVPIGGCLINNKDGSVLGRGHNMRFQKGSATLHGEISTLENCGRLEGKVYKDTTLYTTLSPCDMCTGAIIMYGIPRCVVGENVNFKSKGEKYLQTRGHEVVVVDDERCKKIMKQFIDERPQDWFEDIGE", "values": [{"measurement": "Km", "setting": "[3]", "result": "0.8 ± 0.18", "unit": "mM"}, {"measurement": "Km", "setting": "[4]", "result": "3.75 ± 0.69", "unit": "mM"}]}]}
